B1: 5-repeat telomeric hairpin (structured_DNA)
DNA: CTTGTGCACAGACTCGTTTGGTTATCGAAGGTTAGGGTTAGGGTTAGGGTTAGGGTTAGGGTGCTACCAGGAAAAAAAACCTGGTAGCACCCTAACCCTAACCCTAACCCTAACCCTAACCTTCGATAACCTTTGCAGCCAGGTCAGTAGCGAC
modifications: 5' phosphate
B2: non-telomeric hairpin (structured_DNA)
DNA: CTTGTGCACAGACTCGTTTGGTTATCGAAGGTAAGGTCTGGCGAACGGTGTATTACCGGTTTGCTACCAGGAAAAAAAACCTGGTAGCAAACCGGTAATACACCGTTCGCCAGACCTTACCTTCGATAACCTTTGCAGCCAGGTCAGTAGCGAC
modifications: 5' phosphate

How the values were obtained:
Conditions in all cases: protein: recombinant, tags: N-terminal His6 removed by TEV, chain copies: 2, label: 5' biotin and 3' thiol via ligated handles, 52 bp stem, 8 nt loop
[1] = molecular target: TRF2 45-500 (deltaB-TRF2) (Homo sapiens, UniProt Q15554 87-542, del43-86); assay: single-molecule magnetic tweezers hairpin unzipping; Hill n=1.0±0.2; Magnetic tweezers: 150 mM KCl (stretching; full buffer, pH and temperature not in material). EMSA: 25 mM HEPES-Na pH 7.5, 50 mM NaCl, 4 C, 30 min
Sequence of TRF2 45-500 (deltaB-TRF2) (Q15554 87-542, stated change not applied): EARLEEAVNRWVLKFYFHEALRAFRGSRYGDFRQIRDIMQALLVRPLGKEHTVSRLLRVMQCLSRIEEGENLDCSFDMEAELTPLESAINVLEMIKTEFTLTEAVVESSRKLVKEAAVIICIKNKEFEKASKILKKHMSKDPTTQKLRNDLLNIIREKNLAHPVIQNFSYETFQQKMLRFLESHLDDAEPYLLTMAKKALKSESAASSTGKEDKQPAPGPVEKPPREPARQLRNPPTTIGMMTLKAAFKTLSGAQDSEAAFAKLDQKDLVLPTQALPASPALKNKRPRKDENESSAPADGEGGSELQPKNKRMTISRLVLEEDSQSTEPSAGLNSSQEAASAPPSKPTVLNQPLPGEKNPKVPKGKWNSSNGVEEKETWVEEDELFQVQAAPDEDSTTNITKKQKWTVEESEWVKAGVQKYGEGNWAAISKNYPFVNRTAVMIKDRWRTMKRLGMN

hTRF2 full-length [2] = molecular target: T1, hTRF2 full-length (Homo sapiens, UniProt Q15554 43-542); assay: single-molecule magnetic tweezers hairpin unzipping; Hill n=1.0±0.3; Fb 7 pN; Magnetic tweezers: 150 mM KCl (stretching; full buffer, pH and temperature not in material). EMSA: 25 mM HEPES-Na pH 7.5, 50 mM NaCl, 4 C, 30 min
T1 sequence (Q15554 43-542): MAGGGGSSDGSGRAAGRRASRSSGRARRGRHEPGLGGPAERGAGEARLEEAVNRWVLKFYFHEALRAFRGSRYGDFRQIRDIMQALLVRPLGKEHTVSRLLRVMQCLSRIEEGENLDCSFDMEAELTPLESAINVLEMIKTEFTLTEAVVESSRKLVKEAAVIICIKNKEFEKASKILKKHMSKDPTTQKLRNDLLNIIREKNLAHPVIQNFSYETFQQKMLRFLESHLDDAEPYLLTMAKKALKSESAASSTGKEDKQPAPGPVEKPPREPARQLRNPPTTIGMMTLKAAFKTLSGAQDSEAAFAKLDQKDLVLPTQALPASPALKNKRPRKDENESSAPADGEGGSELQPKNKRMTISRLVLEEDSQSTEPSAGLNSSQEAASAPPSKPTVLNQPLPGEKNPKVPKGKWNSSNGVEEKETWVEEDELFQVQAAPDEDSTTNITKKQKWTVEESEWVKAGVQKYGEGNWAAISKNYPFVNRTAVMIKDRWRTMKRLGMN

TRFH (TRF2 42-245) = TRFH (TRF2 42-245) (Homo sapiens, UniProt Q15554 84-287); assay: single-molecule magnetic tweezers hairpin unzipping; no unzipping delay up to 5 uM; very dynamic binding not excluded; Magnetic tweezers: 150 mM KCl (stretching; full buffer, pH and temperature not in material). EMSA: 25 mM HEPES-Na pH 7.5, 50 mM NaCl, 4 C, 30 min
Sequence of TRFH (TRF2 42-245) (Q15554 84-287): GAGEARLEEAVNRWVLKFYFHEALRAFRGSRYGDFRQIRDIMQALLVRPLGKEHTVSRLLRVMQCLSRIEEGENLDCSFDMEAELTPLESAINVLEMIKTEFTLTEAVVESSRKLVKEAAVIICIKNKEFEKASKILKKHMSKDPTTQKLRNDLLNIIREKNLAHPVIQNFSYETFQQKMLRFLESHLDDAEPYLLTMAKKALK

hTRF2 full-length [3] = molecular target: T1, hTRF2 full-length; assay: single-molecule magnetic tweezers hairpin unzipping; Hill n=1.2±1.7; Magnetic tweezers: 150 mM KCl (stretching; full buffer, pH and temperature not in material). EMSA: 25 mM HEPES-Na pH 7.5, 50 mM NaCl, 4 C, 30 min

Row | Binder | Kd [1] [nM] | Kd (hTRF2 full-length [2]) [nM] | binding result (TRFH (TRF2 42-245)) | Kd (hTRF2 full-length [3]) [nM]
1 | B1 | 284 ± 70.5 | 10.3 ± 2.9 | no binding | 
2 | B2 |  |  |  | 76.8 ± 31.7

Reference: paper PMC10838314, “Exploring TRF2-Dependent DNA Distortion Through Single-DNA Manipulation Studies”
